PMC7333892, “Identification of a PGXPP degron motif in dishevelled and structural basis for its binding to the E3 ligase KLHL12” (Open Biology, 2020)
“Also recorded” adds a separate entry of the source. Where no end group is shown, it is not given here. The star is where a group is joined. FITC = O=C1OC2(c3ccc(O)cc3Oc3cc(O)ccc32)c2ccc(NC(=S)*)cc21

Legend:
DVL1 = DVL1 stabilization by MLN4924 in HEK293T cells co-transfected with KLHL12; assay type: cell-based; conditions: western blot
Protocol: (§1) We further investigated whether the ‘PGGPP' motif regulates the KLHL12-dependent degradation of DVL1. WT and mutant DVL1 constructs were therefore transfected into HEK293T cells in the presence or absence of full-length KLHL12. […] By contrast, the levels of the DVL1 mutants were unchanged by KLHL12 co-expression.
(§2) Full-length Flag-KLHL12 and HA-DVL1 constructs were transfected into HEK293T cells at 60% confluency with polyethylenimine. 40 h after transfection, cells were treated with cycloheximide (CHX) for 1 h or MLN4924 for 4 h and then harvested and lysed. Protein levels were analysed by Western blotting (anti-Flag antibody, Sigma-Aldrich, F1804; RRID:AB_262044 and anti-HA antibody, Biolegend, 901501; RRID:AB_2565006).

KLHL12 Kelch domain = target: T1, KLHL12 Kelch domain (Homo sapiens, UniProt Q53G59); assay: Fluorescence polarization peptide binding to KLHL12; conditions: N-terminal FITC-labelled peptide 40 nM, 50 mM HEPES pH 7.5, 300 mM NaCl, 0.5 mM TCEP, 0.01% Triton-X, mean, n = 3
T1 construct: Human KLHL12 Kelch domain (Uniprot Q53G59-1, residues 268–567); His6 (N); made in house; host or cells: E. coli BL21(DE3)-R3-pRARE, vector pNIC28-Bsa4 (Addgene_38908)
T1 sequence (Q53G59 268-567): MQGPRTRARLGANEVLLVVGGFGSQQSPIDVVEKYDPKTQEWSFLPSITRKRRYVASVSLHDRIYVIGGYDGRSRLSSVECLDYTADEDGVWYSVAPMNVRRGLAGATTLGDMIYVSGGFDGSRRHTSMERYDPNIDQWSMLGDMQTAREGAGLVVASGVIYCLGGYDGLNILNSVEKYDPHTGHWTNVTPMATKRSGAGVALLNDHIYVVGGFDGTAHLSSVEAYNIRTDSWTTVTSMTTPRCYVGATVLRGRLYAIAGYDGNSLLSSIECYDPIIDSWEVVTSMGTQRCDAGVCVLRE
Protocol: Human KLHL12 Kelch domain (Uniprot Q53G59-1, residues 268–567) and KLHL7 Kelch domain (Uniprot Q8IXQ5-1, residues 283–586) were expressed from the vector pNIC28-Bsa4 in BL21(DE3)-R3-pRARE cells and purified by nickel affinity and size exclusion chromatography as described previously. Both plasmids are deposited in addgene (RRID:Addgene_38908 and RRID:Addgene_39023, respectively).
Fluorescence polarization assays were performed in 384-well plates using a Synergy 2 microplate reader (BioTek) with excitation and emission wavelengths of 485 nm and 528 nm, respectively. Peptides were synthesized, N-terminally labelled with FITC and purified by Tufts University Core Services (Boston, MA). Binding assays were performed in 10 µl volume at a constant labelled peptide concentration of 40 nM and indicated Kelch domain protein concentrations in a buffer containing 50 mM HEPES, pH 7.5, 300 mM NaCl, 0.5 mM TCEP and 0.01% Triton-X. Binding data were corrected for background of the free labelled peptides (no protein). For KD determination, data were fitted to a hyperbolic function using Sigma Plot software (Systat Software, San Jose CA). KD values represent mean ± S.E. (n = 3).

[1] = test system: full-length Flag-tagged KLHL12; assay: Co-immunoprecipitation of HA-DVL1 variants with Flag-KLHL12 in HEK293T cells; assay type: cell-based; conditions: MLN4924 4 h, anti-Flag immunoprecipitation, western blot
Protocol: To validate the identified ‘PGGPP' sequence as degron motif for DVL1 recruitment and degradation by the KLHL12, we tested the binding, ubiquitination and stability of DVL1 in HEK293T cells. Two variants of full-length HA-tagged DVL1 were prepared in which the 657-‘PPGGPP' motif was either mutated to ‘AAAAAA' or deleted. Immunoprecipitation of the complex using full-length Flag-tagged KLHL12 was performed in cells treated with the neddylation inhibitor MLN4924 to ensure the stability of all transfected DVL1 variants. […] To confirm that the interaction promoted DVL1 ubiquitination, we next transfected Flag-tagged KLHL12 and HA-DVL1 variants into cells pretreated with the proteasome inhibitor MG132. DVL1 was immunoprecipitated by anti-HA agarose and its ubiquitination status probed by immunoblotting for the presence of high molecular weight poly-ubiquitin conjugates. A marked reduction in the ubiquitination of the two DVL1 mutants was observed compared to wild-type consistent with the importance of the ‘PGGPP' motif for KLHL12 recruitment (figure 5b). […]
Full-length DVL1 variants (Uniprot O14640-1) and KLHL12 were subcloned into a pcDNA3 vector, with N-terminal HA tag and Flag tag, respectively. […] Results were analysed using western blotting (Anti-Flag antibody, Sigma-Aldrich, F1804; RRID:AB_262044; Anti-HA antibody, Biolegend, 901501; RRID:AB_2565006).

full-length KLHL12 = assay: Stability assay of DVL1 variants with or without KLHL12 in HEK293T cells; assay type: cell-based; conditions: KLHL12 co-expression versus DVL1 alone, cycloheximide 1 h, western blot, GAPDH loading control
Protocol: as §1, §2

[2] = target: T2, Human KLHL12 Kelch domain (residues 268-567) (human, UniProt Q53G59-1 268-567); assay: peptide or protein array; initial DVL1 SPOT array: 20-mer peptides on cellulose membrane, incubated with 0.4 µM His6-tagged Kelch domain protein in PBS for 1 h at 4°C, bound protein detected with HRP-conjugated anti-His antibody; conditions: both partners purified
T2 construct: KLHL12 Kelch domain, human, Uniprot Q53G59-1, residues 268-567; the structure traces residues 279-567; The His6 tag is kept in the SPOT arrays (detected with anti-His antibody); Expressed from the vector pNIC28-Bsa4; also called 6 x His-KLHL12 Kelch domain; His6-tagged KLHL12 Kelch domain
T2 sequence (looked up): T1 sequence (Q53G59 268-567)

[3] = target: T2, Human KLHL12 Kelch domain (residues …); assay: fluorescence polarisation; 40 nM FITC-labelled peptide, Kelch domain protein titrated; 50 mM HEPES pH 7.5, 300 mM NaCl, 0.5 mM TCEP, 0.01% Triton-X; hyperbolic fit, n = 3; conditions: both partners purified
KLHL12 = conditions: parallel study, ref [36] Zhao et al.; cited from earlier work
Text: The omitted proline position is substituted by a glycine or alanine in pa ...

## NS(=O)(=O)OC[C@@H]1C[C@@H](n2ccc3c(N[C@H]4CCc5ccccc54)ncnc32)C[C@@H]1O [MLN4924]
DVL1; HEK293T cells co-transfected with DVL1 WT and KLHL12, MLN4924 4 h
  stability of DVL1 WT on MLN4924: stabilized DVL1 WT; also recorded: rescued the stability of DVL1 WT
DVL1; HEK293T cells co-transfected with DVL1 mutants and KLHL12, MLN4924 4 h
  stability of DVL1 mutants on MLN4924: not DVL1 mutants

## CC(C)C[C@H](NC(=O)[C@H](CCC(=O)O)NC(=O)[C@H](CCCNC(=N)N)NC(=O)[C@@H](NC(=O)[C@@H]1CCCN1C(=O)[C@@H]1CCCN1C(=O)CNC(=O)CNC(=O)[C@@H]1CCCN1C(=O)[C@@H]1CCCN1C(=O)CNC(=O)CNC(=O)[C@@H](NC(=O)[C@@H](NC(=O)[C@@H](NC(=O)[C@H](Cc1ccc(O)cc1)NC(=O)[C@H](C)N)[C@@H](C)O)C(C)C)C(C)C)C(C)C)C(=O)N[C@@H](C)C(=O)N[C@@H](C)C(=O)N[C@H](C(=O)O)C(C)C [Spot A13]
KLHL12 Kelch domain
  Kd: 22.3 µM

B1: DVL1 WT: full-length HA-tagged wild-type DVL1 expressed in cells (protein)
chain: MAETKIIYHMDEEETPYLVKLPVAPERVTLADFKNVLSNRPVHAYKFFFKSMDQDFGVVKEEIFDDNAKLPCFNGRVVSWLVLAEGAHSDAGSQGTDSHTDLPPPLERTGGIGDSRPPSFHPNVASSRDGMDNETGTESMVSHRRERARRRNREEAARTNGHPRGDRRRDVGLPPDSASTALSSELESSSFVDSDEDGSTSRLSSSTEQSTSSRLIRKHKRRRRKQRLRQADRASSFSSITDSTMSLNIVTVTLNMERHHFLGISIVGQSNDRGDGGIYIGSIMKGGAVAADGRIEPGDMLLQVNDVNFENMSNDDAVRVLREIVSQTGPISLTVAKCWDPTPRSYFTVPRADPVRPIDPAAWLSHTAALTGALPRYGTSPCSSAVTRTSSSSLTSSVPGAPQLEEAPLTVKSDMSAVVRVMQLPDSGLEIRDRMWLKITIANAVIGADVVDWLYTHVEGFKERREARKYASSLLKHGFLRHTVNKITFSEQCYYVFGDLCSNLATLNLNSGSSGTSDQDTLAPLPHPAAPWPLGQGYPYQYPGPPPCFPPAYQDPGFSYGSGSTGSQQSEGSKSSGSTRSSRRAPGREKERRAAGAGGSGSESDHTAPSGVGSSWRERPAGQLSRGSSPRSQASATAPGLPPPHPTTKAYTVVGGPPGGPPVRELAAVPPELTGSRQSFQKAMGNPCEFFVDIM
modifications: left off: HA, N-terminal, kept
notes: full-length HA-tagged wild-type DVL1 expressed in cells
[1]
  binding of DVL1 to KLHL12 (immunoprecipitation): bound robustly
[1]; listed as Wild-type (WT) DVL1
  binding of DVL1 to KLHL12 (immunoprecipitation): bound robustly to KLHL12
full-length KLHL12
  DVL1 protein level / stability: striking reduction in the DVL1 protein level

B2: DVL1 20-mer peptide, residues 650-669, printed on the SPOT array (spot A13) (peptide, UniProt O14640-1 650-669, looked up)
peptide: AYTVVGGPPGGPPVRELAAV
notes: source: synthetic peptide, synthesized directly on a modified cellulose membrane with a polyethylglycol linker (SPOT)
[2]
  binding result: binds

B3: FITC-labelled DVL1 peptide, residues 650-669 (peptide, UniProt O14640-1 650-669, looked up)
peptide: {FITC}-AYTVVGGPPGGPPVRELAAV
notes: source: synthetic peptide (Tufts University Core Services), purified
[3]
  Kd: 22.3 µM

B4: DVL3 (Zhao et al.): DVL3, KLHL12 binding by NMR in a parallel study by Zhao et al. (protein, UniProt Q92997 1-716, looked up)
Segment polarity protein …: MGETKIIYHLDGQETPYLVKLPLPAERVTLADFKGVLQRPSYKFFFKSMDDDFGVVKEEISDDNAKLPCFNGRVVSWLVSAEGSHPDPAPFCADNPSELPPPMERTGGIGDSRPPSFHPHAGGGSQENLDNDTETDSLVSAQRERPRRRDGPEHATRLNGTAKGERRREPGGYDSSSTLMSSELETTSFFDSDEDDSTSRFSSSTEQSSASRLMRRHKRRRRKQKVSRIERSSSFSSITDSTMSLNIITVTLNMEKYNFLGISIVGQSNERGDGGIYIGSIMKGGAVAADGRIEPGDMLLQVNEINFENMSNDDAVRVLREIVHKPGPITLTVAKCWDPSPRGCFTLPRSEPIRPIDPAAWVSHTAAMTGTFPAYGMSPSLSTITSTSSSITSSIPDTERLDDFHLSIHSDMAAIVKAMASPESGLEVRDRMWLKITIPNAFIGSDVVDWLYHNVEGFTDRREARKYASNLLKAGFIRHTVNKITFSEQCYYIFGDLCGNMANLSLHDHDGSSGASDQDTLAPLPHPGAAPWPMAFPYQYPPPPHPYNPHPGFPELGYSYGGGSASSQHSEGSRSSGSNRSGSDRRKEKDPKAGDSKSGGSGSESDHTTRSSLRGPRERAPSERSGPAASEHSHRSHHSLASSLRSHHTHPSYGPPGVPPLYGPPMLMMPPPPAAMGPPGAPPGRDLASVPPELTASRQSFRMAMGNPSEFFVDVM
KLHL12
  binding to KLHL12 by NMR: confirmed the binding
